Experimental findings from article PMC10277290 are described below.

For orientation: Km means the concentration of substrate that gives half-maximal velocity. One may read the Vmax as the top rate of the reaction or transport when substrate is in excess. The term kcat denotes the maximal rate divided by the concentration of active sites. Usually kcat/Km stands for the turnover number divided by the Michaelis constant.

Substrate in the data set: CO
Put plainly: purified protein. The class given is biochemical, Geobacillus stearothermophilus. As to conditions: NAD+ 0.5 mM, Mg2+ 5 mM, PBS pH 7.4, 37 °C.

B1: MdhBs (NAD+-dependent methanol dehydrogenase) (Geobacillus stearothermophilus) (protein)
chain: MKAAVVNEFKKALEIKEVERPKLEEGEVLVKIEACGVCHTDLHAAHGDWPIKPKLPLIPGHEGVGIVVEVAKGVKSIKVGDRVGIPWLYSACGECEYCLTGQETLCPHQLNGGYSVDGGYAEYCKAPADYVAKIPDNLDPVEVAPILCAGVTTYKALKVSGARPGEWVAIYGIGGLGHIALQYAKAMGLNVVAVDISDEKSKLAKDLGADIAINGLKEDPVKAIHDQVGGVHAAISVAVNKKAFEQAYQSVKRGGTLVVVGLPNADLPIPIFDTVLNGVSVKGSIVGTRKDMQEALDFAARGKVRPIVETAELEEINEVFERMEKGKINGRIVLKLKED
As for B1, the Km amounted to 30.03 ± 4.63 mM, the Vmax worked out at 0.0115 µmol/min/mg, the kcat amounted to 0.007 ± 0.001 s⁻¹ and the kcat/Km is 0.233 M⁻¹ s⁻¹.

B2: MdhBs (NAD+-dependent methanol dehydrogenase) (Geobacillus stearothermophilus; K72T/T153P) (protein)
chain: MKAAVVNEFKKALEIKEVERPKLEEGEVLVKIEACGVCHTDLHAAHGDWPIKPKLPLIPGHEGVGIVVEVATGVKSIKVGDRVGIPWLYSACGECEYCLTGQETLCPHQLNGGYSVDGGYAEYCKAPADYVAKIPDNLDPVEVAPILCAGVTPYKALKVSGARPGEWVAIYGIGGLGHIALQYAKAMGLNVVAVDISDEKSKLAKDLGADIAINGLKEDPVKAIHDQVGGVHAAISVAVNKKAFEQAYQSVKRGGTLVVVGLPNADLPIPIFDTVLNGVSVKGSIVGTRKDMQEALDFAARGKVRPIVETAELEEINEVFERMEKGKINGRIVLKLKED
For the protein B2, the Km is reported as 9.84 ± 0.67 mM, the Vmax was 0.0288 µmol/min/mg, the kcat was found to be 0.015 ± 0.001 s⁻¹ and the kcat/Km was found to be 1.52 M⁻¹ s⁻¹.

B3: MdhBs (NAD+-dependent methanol dehydrogenase) (Geobacillus stearothermophilus; E309K/N214D) (protein)
chain: MKAAVVNEFKKALEIKEVERPKLEEGEVLVKIEACGVCHTDLHAAHGDWPIKPKLPLIPGHEGVGIVVEVAKGVKSIKVGDRVGIPWLYSACGECEYCLTGQETLCPHQLNGGYSVDGGYAEYCKAPADYVAKIPDNLDPVEVAPILCAGVTTYKALKVSGARPGEWVAIYGIGGLGHIALQYAKAMGLNVVAVDISDEKSKLAKDLGADIAIDGLKEDPVKAIHDQVGGVHAAISVAVNKKAFEQAYQSVKRGGTLVVVGLPNADLPIPIFDTVLNGVSVKGSIVGTRKDMQEALDFAARGKVRPIVKTAELEEINEVFERMEKGKINGRIVLKLKED
Take B3: the Km is reported as 18.19 ± 3.27 mM, the Vmax came to 0.0238 µmol/min/mg, the catalytic constant (kcat) was found to be 0.013 ± 0.001 s⁻¹ and the kcat/Km was found to be 0.715 M⁻¹ s⁻¹.
